Results on 20 sequences are retold here after the DeepSol protein solubility set.

This data set in a line: soluble on expression in E. coli; label from the status in PepcDB or PDB records.
On to “MKKTAIAIAVALAGFATVAQAEVKLHESGAGLVKPGASVEISCKATGYTFSSFWIEWVKQRPGHGLEWIGEILPGRGRTNYNEKFKGKATFTAETSSNTAYMQLSSLTSEDSAVYYCATGNTMVNMPYWGQGTTVTVSSASTKGPSVFPLAPSSKSTSGGTAALGCLVKDYFPEPVTVSWNSGALTSGVHTFPAVLQSSGLYSLSSVVTVPSSSLGTQTYICNVNHKPSNTKVDKKVEPKSCSAWSHPQFEK”, for which the “soluble on expression in E. coli” value is “soluble”.

For the sequence “MKKTIISTLVIGLVSGCSNTNLLKDNLASEQSVINLSKSSNEAKSRNIEFLSGAYLSERKVPKHDIKFSGKYVEFESKSPIELIDVLDGLSKQYNIQYVFSDELEDENSEENKKSSGSSSAKKIKYSGPLAGFFDYLSSAYNMHFEFGHNNLVKAYHYKNQVFNLQQYFDDNKFSSSMQIGGTSGTSSGLKGTADTAIESNSWEKIDEFLSASLGETGKFTIFEDYSLVTVKARPDKFLLLHTFFDKLINESKMQIAVDYRVVSLSEERLNQLAAKFGIENAGKYSITSDMVDAISLSQVGGGLGASYRSASARLDAVVNELSQEVMHEGHFIGIPNRVMPLNVTTNSKYISSIETTKDTNTDEETRTVKVSDLVTGFSMMVMPKILDDGRIQISSGFSRKQLVSIGTAQGITLPTVDENESMNTVTMNPGEVRLAMLFKDNYIQNSNGVQLLGGGTENKKSARYIAVLVGASSYKTNDLASNRVNIYD”, the “soluble on expression in E. coli” value is “not soluble”.

Take “MKKTKVHLISGFLGTGKTTALKSLMAQKDPNEKWVIIVNEFGEIGIDGAVLSDNGIPVAEIAGGCLCCTAGPQMGVTVQKMLRDAKPDRLMIEASGLAHAASVIDELKTKPLDSLLEIGAVFTVVDPRQFINPDYAQQALYKDQIGICDVLVASKTDLCTPEQLAEFHDKAAKLFPPKAKVVEVQNAQLDIQWLDIPVIEKSRYRLKALPDNTMGFQSQGFTFPAGRDFDGEKLTNFFNDLPNMTEGLVRAKGVFQVLGTWVWLNWVDGQWGANQVSWRRDSRFELIAKSFDADLIEQKLKDALELEHHHHHH”: the “soluble on expression in E. coli” value was “not soluble”.

For “MKKTLTVTLSSIAAFIAINTAANAQESETSQLDTYATGDVITNQSNLGIYIVKPGDSLYKIALEHNLSLEELYALNPGVEPLIFPGDEIVVSETAFEQFNNTNTFVNYETNYIPVGYNNVSTDTSNTTYDNYDSESTDTYSVSNAYDGLRSVSNSGNLYTTGQCTYYAFDRRAELGKPIGSLWGNASNWAYSANQAGFNVDHTPEVGAVFQSGPGQNGAGAYGHVGVVESINSNGSVTVSEMNWNGGVNVKSYRTISNPNSYNYIHLEHHHHHH”, the “soluble on expression in E. coli” value is on record as “not soluble”.

As to “MKKVSPSYLKHQFLIAMPHMHDENFAQTLTYVVEHNANGAMGLVINRPQSLTLADVLEQLRPELPAPKRCQEIAIHAGGPVQTDRGFVLHPSGQTFQATVDLPGGISLSTSQDVLFSIADGYGPDQNVITLGYAGWDAGQLDAEMADNAWLTCSFDPAILFDVDSDQRLDAAARRLGINLALISTQAGHAAAALEHHHHHH”, the “soluble on expression in E. coli” value is “not soluble”.

Turning to “MKKVVTVCPYCASGCKINLVVDNGKIVRAEAAQGKTNQGTLCLKGYYGWDFINDTQILTPRLKTPMIRRQRGGKLEPVSWDEALNYVAERLSAIKEKYGPDAIQTTGSSRGTGNETNYVMQKFARAVIGTNNVDCCARVCHGPSVAGLHQSVGNGAMSNAINEIDNTDLVFVFGYNPADSHPIVANHVINAKRNGAKIIVCDPRKIETARIADMHIALKNGSNIALLNAMGHVIIEENLYDKAFVASRTEGFEEYRKIVEGYTPESVEDITGVSASEIRQAARMYAQAKSAAILWGMGVTQFYQGVETVRSLTSLAMLTGNLGKPHAGVNPVRGQNNVQGACDMGALPDTYPGYQYVKDPANREKFAKAWGVESLPAHTGYRISELPHRAAHGEVRAAYIMGEDPLQTDAELSAVRKAFEDLELVIVQDIFMTKTASAADVILPSTSWGEHEGVFTAADRGFQRFFKAVEPKWDLKTDWQIISEIATRMGYPMHYNNTQEIWDELRHLCPDFYGATYEKMGELGFIQWPCRDTSDADQGTSYLFKEKFDTPNGLAQFFTCDWVAPIDKLTDEYPMVLSTVREVGHYSCRSMTGNCAALAALADEPGYAQINTEDAKRLGIEDEALVWVHSRKGKIITRAQVSDRPNKGAIYMTYQWWIGACNELVTENLSPITKTPEYKYCAVRVEPIADQRAAEQYVIDEYNKLKTRLREAALA”, the “soluble on expression in E. coli” value is listed as “soluble”.

Turning to “MKKWKVRSALVALIVLLAGCSSNAQYNSSASGNVGTAWGGDVHSTVQGVSAERAWRDPAEMIVISYSTNVPSGYDRVYSIRINELEYAIRDGNFNSLPITRVYDSSNNEPRYIVHARVGMNYQLYVRNYSRNTNYEIVATVDGLDVLNGKQGSLNNNGYIVNAGDSLAIKGFRKDKHTEAAFQFANVADSYAANSAQGDVRNTGVIGFAAFELQGQAQNALPPCSGQAFPADNNGYAPPPCRK”, the “soluble on expression in E. coli” value is “not soluble”.

“MKLAAKTFTPSTADLPFTDAGASEDSGMANKPGEPAFQLWLDVKKVVFPTTSEPSYVNLRLHNPTDKRITFKVRCTSAELFRVQPPIAFINAGATVNLVMWSANTHLQPEKKHYFAFYHKNASPSARQSPPLWKDGLKDAEGVRRIPVVFLPPSS”: the “soluble on expression in E. coli” value is reported as “not soluble”.

Regarding “MKLAAMIKKMCPSDSELSIPAKNCYRMVILGSSKVGKTAIVSRFLTGRFEDAYTPTIEDFHRKFYSIRGEVYQLDILDTSGNHPFPAMRRLSILTGDVFILVFSLDNRDSFEEVQRLRQQILDTKSCLKNKTKENVDVPLVICGNKGDRDFYREVDQREIEQLVGDDPQRCAYFEISAKKNSSLDQMFRALFAMAKLPSEMSPDLHRKVSVQYCDVLHKKALRNKKLLRAGSGGGGGDPGDAFGIVAPFARRPSVHSDLMYIREKASAGSQAKDKERCVIS”, the “soluble on expression in E. coli” value is listed as “soluble”.

“MKLALVNRQVILPESGTESFQCHASTLVRLPCGTLVAAWFAGLREGSEDTAIWLSRYEHNIWTTPQRVAAREGEAHWNPVLFYPSDKLWLFYKVGSDVHVWKTWFITSSDRGFTWSTPAPLVNDDILPRGPVKNKLLLASNGAWIAPGSIESPERWRAFVDRSSDEGKHWSISFVPLEPDNAISGTNVALWDGIKKGRLWECCLENLLRWDGVIQPTLWESSPGHIHMLLRSTRGAIFRSDSIDYGATWSVARATSLPNNNSGIDLVSMQDGTLILALNPVNGNWGKRYPLSLIASQDNGESWLPLLDLESDHGEYSYPAIISEGGIVHITYTWNRKNIVYCRLQTVLEHHHHHH”: the “soluble on expression in E. coli” value is given as “not soluble”.

In the case of “MKLAVLGTGMIVKEVLPVLQKIDGIDLVAILSTVRSLTTAKDLAKAHHMPLATSKYEAILGNEEIDTVYIGLPNHLHFAYAKEALLAGKHVICEKPFTMTAGELDELVVIARKRKLILLEAITNQYLSNMTFIKEHLDQLGDIKIVECNYSQYSSRYDAFKRGDIAPAFNPKMGGGALRDLNIYNIHFVVGLFGRPKTVQYLANVEKGIDTSGMLVMDYEQFKVVCIGAKDCTAEIKSTIQGNKGSLAVLGATNTLPQVQLSLHGHEPQVINHNKHDHRMYEEFVAFRDMIDQRDFEKVNQALEHSRAVMAVLERAVHS”, the “soluble on expression in E. coli” value is listed as “not soluble”.

Consider “MKLHTLVSCLHDFPVVPKENPEITSIEADSRKVKEGSLFVCMKGYTVDSHDFAKQAAAQGAAAIVAERPIDVDVPVVLVKNTFRSLAVLADYFYGQPTHKLHLIGITGTNGKTTTSHIMDEIMRAHGHKTGLIGTINMKIGDETFEVKNTTPDALTLQQTFAKMVEHGVDSTVMEVSSHALDLGRVHGCDYDVAVFTNLTQDHLDYHKTMEEYKHAKGLLFAQLGNSYNHNREKYAVLNNDDAVTVEYMRSTAATVVTYGIDTTSDVMAKDIAMTSGGTTFTLVTPYESVNVTMKLIGKFNVYNVLAATAAGLVSGVSLETIIDVIKELAGVPGRFEVVDGGQNYTVIVDYAHTPDSLENVLKTAKQFAKGDVYCIVGCGGDRDRTKRPIMASVATQYATHAIYTSDNPRSEDPAAILDDMVHGANGNNYEVIIDRKEAIHHAITKAKADDIIIIAGKGHETYQIIGKDVHHFDDREVAKEAITERLNNEE”, for which the “soluble on expression in E. coli” value was “not soluble”.

For the sequence “MKLIAVLNLLNQLSNKNSLEEYLNGVIDFLSGWTGCENIGIRVLREAGLAPYVVHRGFDKDFIASESCISVEGDECVCLRVLKQQFKSEDQDHISAAGTYYAPNFYRYVEELREDQLLNFRGLCAHKQFKSLAVIPLLHQGKVVGAIHIADIKDGVFSEEDIHFIETIRPLVAEAIYRHNLEKALEHHHHHH”, the “soluble on expression in E. coli” value is “not soluble”.

Consider “MKLLAITSCPNGIAHTYMAAENLQKAADRLGVSIKVETQGGIGVENKLTEEEIREADAIIIAADRSVNKDRFIGKKLLSVGVQDGIRKPEELIQKALNGDIPVY”, for which the “soluble on expression in E. coli” value was “not soluble”.

As to “MKLMDVRVSGLNVWITDKHILKGISFKAQPGTVTAIMGPSGSGKSTLIRVINRLIDLIPGARVEGEVWINNMNVMKEDPYNIRRYTGMVFQEPNPFPHMTIYENVAIGPKLHGLAKNKKELDEIVEWALKMAHLWDEVKDRLSDYPHQLSGGQRQRLSLARALALKPRVLLLDEPTANIDPVSTVKIEQSIVEYAKEEMATVIIVTHTPQQAARISDQILFLYEGRVIEYGPTKELVLRPRHELTKKFLGGEV”, the “soluble on expression in E. coli” value is “soluble”.

With “MKLMFASDIHGSLPATERVLERFAQSGARWLVILGDVLNHGPRNALPEGYAPAQVAERLNAVATQIIAVRGNCDSEVDQMLLHFPITAPWQQILTQERRLFLTHGHLFGPTNLPALHTGDVLVYGHTHLPVAQQQEGLYHFNPGSVSIPKGGYAASYGILDDNVLSVIALNDQSIIAQVAINS”, the “soluble on expression in E. coli” value is recorded as “not soluble”.

In the case of “MKLNKLFDSKTVVFKKSDKYGKSDCCKTKCVEGQIEFGVKIPTDFPAFNRALVTFLKTQKNQLNVDLDSFVELYKAENLCYKTALKVVVASITFCETTPFTMKTEPQKNVEVAVKCDSEHTSLIKEYEV”, the “soluble on expression in E. coli” value is given as “not soluble”.

For the sequence “MKLQTTYPSNNYPIYVEHGAIKYIGTYLNQFDQSFLLIDEYVNQYFANKFDDILSYENVHKVIIPAGEKTKTFEQYQETLEYILSHHVTRNTAIIAVGGGATGDFAGFVAATLLRGVHFIQVPTTILAHDSSVGGKVGINSKQGKNLIGAFYRPTAVIYDLDFLKTLPFKQILSGYAEVYKHALLNGESATQDIEQHFKDREILQSLNGMDKYIAKGIETKLDIVVADEKEQGVRKFLNLGHTFGHAVEYYHKIPHGHAVMVGIIYQFIVANALFDSKHDISHYIQYLIQLGYPLDMITDLDFETLYQYMLSDKKNDKQGVQMVLMRQFGDIVVQHVDQLTLQHACEQLKTYFK”, the “soluble on expression in E. coli” value was “soluble”.

Regarding “MKLRANIIEKRGTLQVIVSYKDSNGKIRQKWKDTKLKKKGNKKRAEKIRDEFLLELESQLAMECECANPDLLFYDYLLNYLEVSKKQVAFNTYVGYKHYVHNRIYKFFYPKKIKLNRLKPYHLQDFYQYMLNDDCTANTVIHYHAFIRKALQEAVITELISTNVADKVRKPKKKQFVSQVYNQHEILKLLDILSEEKLYLVVLLTAFYGLRRSEVLGLKWSAIDFLNKKIMINHVIIENPENMSQLIKKDQTKNSSSYRTLPLVETIERALVNQAKWQQDNRILLGEDYILKDSEYVFTMEDGRLMKPQYVTHRLSKLIKKNGLKKIRFHDLRHSNASIMLDSGQNMKSIQEWLGHASYSTTANLYTHLTAGVKERAAEALENAFGFKE”, the “soluble on expression in E. coli” value is recorded as “not soluble”.

Consider “MKLSATIAIILLNWNGWRDTVDCVESCRKLDYPNFRIVIVDNGSTDGSEAILRERFPDVELIQTGANLGFAGGNNAGIRHALVRGADYVWLLNNDTVVEPGALGALVRVAESDPRVGMVGSKIVYFDDPWLLWFAGAVIDPERPHRPFHRGLHERDTGQYDRVAETGYVTGCSLLARREMMAEVGMLDDDLFLYFEDADWSARAARAGWKLLYVPDSVVRHKESVSSGGAASPRLVYYTARNRLYFVRRNFPAKLAAALCYDLFEHVLVNVKKGRFPLAVAGCRGIRDFLAGKIGPMPLEHHHHHH”, for which the “soluble on expression in E. coli” value is recorded as “soluble”.
